Kd data for one molecule are collected here from PMC12022973 (2025).

Positions of bridges follow the written chain, without caps; N, C: chain ends. Chains are numbered I, II in the order given. No end group written: not given here.

In the test the target is preformed MYC/MAX heterodimer (human | , UniProt P61244 1-160). The experiment in a line: FP.
Chain of preformed MYC/MAX heterodimer (chain, as listed by the source, chain 1 of 2): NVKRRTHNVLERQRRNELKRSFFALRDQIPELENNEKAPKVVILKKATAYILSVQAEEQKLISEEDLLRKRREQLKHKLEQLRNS
Chain of preformed MYC/MAX heterodimer (P61244 2-160, chain 2 of 2): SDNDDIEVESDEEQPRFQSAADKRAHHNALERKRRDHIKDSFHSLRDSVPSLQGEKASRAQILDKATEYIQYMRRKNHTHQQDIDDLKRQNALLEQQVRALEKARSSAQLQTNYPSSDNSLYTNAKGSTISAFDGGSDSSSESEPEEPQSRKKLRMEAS

B1: fluorescein-labeled CHD^Max-1 (cross-linked helix dimer derived from MAX) (designed binder)
chain 1: LREKIATLQWCIEELRK
chain 2: LRRKNETHQWEIEELC
modifications: bridge I:11-II:16; not fully specified (bridges); also: fluorescein label, chain and position not given here
The molecule B1 had an equilibrium dissociation constant (Kd) of 460 nM.
